Results: publication PMC10397247
Read-outs that look alike come from different tables or passages of the source.

Experiments:
Assay in all cases: two-hybrid library CCmax;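 further: natural log of median RNA to DNA barcode read ratio; higher means stronger binding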
[1] = molecular target: T1, 4H483-AA; conditions: mean of both orientations
T1 chain: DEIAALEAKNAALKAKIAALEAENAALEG

[2] = molecular target: T2, 4H341-AA; conditions: mean of both orientations
T2 chain: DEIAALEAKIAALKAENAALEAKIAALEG

[3] = molecular target: T3, 4H3619-AA; conditions: mean of both orientations
T3 chain: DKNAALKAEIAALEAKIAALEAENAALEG

[4] = molecular target: T4, 4H963-AA; conditions: mean of both orientations
T4 chain: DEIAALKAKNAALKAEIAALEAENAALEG

[5] = molecular target: T5, 4H3974-AA; conditions: mean of both orientations
T5 chain: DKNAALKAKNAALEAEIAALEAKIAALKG

[6] = molecular target: T6, 4H2774-AA
T6 chain: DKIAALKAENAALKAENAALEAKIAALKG

[7] = molecular target: T7, 4H347-AA; conditions: mean of both orientations
T7 chain: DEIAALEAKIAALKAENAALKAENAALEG

[8] = molecular target: T8, 4H3969-AA; conditions: mean of both orientations
T8 chain: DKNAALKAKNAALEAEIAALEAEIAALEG

[9] = molecular target: 4H_GCN4
[10] = molecular target: T9, 4H2931-AA; conditions: mean of both orientations
T9 chain: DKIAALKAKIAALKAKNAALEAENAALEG

[11] = molecular target: T10, 4H452-AA; conditions: mean of both orientations
T10 chain: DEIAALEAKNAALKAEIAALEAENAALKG

[12] = molecular target: T11, 4H376-AA; conditions: mean of both orientations
T11 chain: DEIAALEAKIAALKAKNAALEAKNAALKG

[13] = molecular target: T12, 4H3049-AA; conditions: mean of both orientations
T12 chain: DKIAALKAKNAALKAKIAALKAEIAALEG

[14] = molecular target: T13, 4H688-AA; conditions: mean of both orientations
T13 chain: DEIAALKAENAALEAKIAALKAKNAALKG

[15] = molecular target: T14, 4H_BCR; conditions: mean of both orientations
T14 chain: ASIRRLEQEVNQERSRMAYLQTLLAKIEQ

[16] = molecular target: T15, 4H3493-AA; conditions: mean of both orientations
T15 chain: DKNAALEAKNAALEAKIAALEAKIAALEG

[17] = molecular target: T16, 4H3015-AA; conditions: mean of both orientations
T16 chain: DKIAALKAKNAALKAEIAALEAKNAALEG

[18] = molecular target: T17, 4H3340-AA; conditions: mean of both orientations
T17 chain: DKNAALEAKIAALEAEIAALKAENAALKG

[19] = molecular target: T18, 4H56-AA; conditions: mean of both orientations
T18 chain: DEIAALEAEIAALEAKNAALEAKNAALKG

[20] = molecular target: T19, 4H3414-AA; conditions: mean of both orientations
T19 chain: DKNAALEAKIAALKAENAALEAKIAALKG

[21] = molecular target: T20, 4H3595-AA; conditions: mean of both orientations
T20 chain: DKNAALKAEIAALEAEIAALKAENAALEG

[22] = molecular target: T21, 4H3782-AA; conditions: mean of both orientations
T21 chain: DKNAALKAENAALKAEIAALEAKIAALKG

[23] = molecular target: T22, 4H432-AA; conditions: mean of both orientations
T22 chain: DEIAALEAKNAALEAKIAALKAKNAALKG

[24] = molecular target: T23, 4H3939-AA; conditions: mean of both orientations
T23 chain: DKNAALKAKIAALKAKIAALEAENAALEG

[25] = molecular target: T24, 4H3777-AA; conditions: mean of both orientations
T24 chain: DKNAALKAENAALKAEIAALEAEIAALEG

[26] = molecular target: T25, 4H3129-AA; conditions: mean of both orientations
T25 chain: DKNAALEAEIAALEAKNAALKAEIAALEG

[27] = molecular target: T26, 4H380-AA; conditions: mean of both orientations
T26 chain: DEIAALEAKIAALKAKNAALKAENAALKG

[28] = molecular target: T27, 4H2961-AA; conditions: mean of both orientations
T27 chain: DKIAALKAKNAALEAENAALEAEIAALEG

[29] = molecular target: T28, 4H3629-AA; conditions: mean of both orientations
T28 chain: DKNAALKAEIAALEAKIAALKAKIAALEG

[30] = molecular target: T29, 4H3915-AA; conditions: mean of both orientations
T29 chain: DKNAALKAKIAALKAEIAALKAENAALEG

[31] = molecular target: T30, 4H446-AA; conditions: mean of both orientations
T30 chain: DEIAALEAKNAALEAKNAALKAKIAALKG

[32] = molecular target: T31, 4H3438-AA; conditions: mean of both orientations
T31 chain: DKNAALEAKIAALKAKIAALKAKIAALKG

[33] = molecular target: T32, 4H63-AA; conditions: mean of both orientations
T32 chain: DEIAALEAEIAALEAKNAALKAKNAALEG

[34] = molecular target: T33, 4H2903-AA; conditions: mean of both orientations
T33 chain: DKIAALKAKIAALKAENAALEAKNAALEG

[35] = molecular target: T34, 4H3094-AA; conditions: mean of both orientations
T34 chain: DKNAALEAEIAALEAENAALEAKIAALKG

[36] = molecular target: T35, 4H324-AA; conditions: mean of both orientations
T35 chain: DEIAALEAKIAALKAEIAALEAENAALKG

[37] = molecular target: GCN2_T
[38] = molecular target: T36, 4H464-AA; conditions: mean of both orientations
T36 chain: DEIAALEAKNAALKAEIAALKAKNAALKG

[39] = molecular target: T37, 4H2947-AA; conditions: mean of both orientations
T37 chain: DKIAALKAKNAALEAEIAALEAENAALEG

[40] = molecular target: T38, 4H_APH; conditions: mean of both orientations
T38 chain: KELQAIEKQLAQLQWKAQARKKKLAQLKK

[41] = molecular target: T39, 4H3381-AA; conditions: mean of both orientations
T39 chain: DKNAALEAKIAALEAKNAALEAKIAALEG

[42] = molecular target: T40, 4H406-AA; conditions: mean of both orientations
T40 chain: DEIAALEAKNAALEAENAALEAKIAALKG

[43] = molecular target: T41, 4H3449-AA; conditions: mean of both orientations
T41 chain: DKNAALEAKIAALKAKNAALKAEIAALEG

[44] = molecular target: T42, 4H3073-AA; conditions: mean of both orientations
T42 chain: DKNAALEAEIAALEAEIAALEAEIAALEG

[45] = molecular target: T43, 4H3001-AA; conditions: mean of both orientations
T43 chain: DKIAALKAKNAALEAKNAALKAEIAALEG

[46] = molecular target: T44, 4H2648-AA; conditions: mean of both orientations
T44 chain: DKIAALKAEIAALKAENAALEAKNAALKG

[47] = molecular target: T45, 4H3631-AA; conditions: mean of both orientations
T45 chain: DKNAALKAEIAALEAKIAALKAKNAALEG

[48] = molecular target: T46, 4H3378-AA; conditions: mean of both orientations
T46 chain: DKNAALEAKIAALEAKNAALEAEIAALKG

[49] = molecular target: T47, 4H3718-AA; conditions: mean of both orientations
T47 chain: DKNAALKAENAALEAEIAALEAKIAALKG

[50] = molecular target: T48, 4H384-AA; conditions: mean of both orientations
T48 chain: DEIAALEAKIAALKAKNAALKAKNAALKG

[51] = molecular target: T49, 4H3865-AA
T49 chain: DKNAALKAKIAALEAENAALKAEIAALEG

[52] = molecular target: T50, 4H3413-AA; conditions: mean of both orientations
T50 chain: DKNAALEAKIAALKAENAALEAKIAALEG

[53] = molecular target: T51, 4H3697-AA; conditions: mean of both orientations
T51 chain: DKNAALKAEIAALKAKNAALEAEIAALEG

[54] = molecular target: T52, 4H3133-AA; conditions: mean of both orientations
T52 chain: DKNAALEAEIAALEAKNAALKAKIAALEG

[55] = molecular target: T53, 4H697-AA
T53 chain: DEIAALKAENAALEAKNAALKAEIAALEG

[56] = molecular target: T54, 4H982-AA; conditions: mean of both orientations
T54 chain: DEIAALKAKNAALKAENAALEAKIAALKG

[57] = molecular target: T55, 4H2611-AA
T55 chain: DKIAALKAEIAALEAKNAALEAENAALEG

[58] = molecular target: T56, 4H2620-AA; conditions: mean of both orientations
T56 chain: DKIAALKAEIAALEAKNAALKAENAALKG

[59] = molecular target: T57, 4H2907-AA; conditions: mean of both orientations
T57 chain: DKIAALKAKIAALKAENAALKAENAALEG

[60] = molecular target: T58, 4H340-AA; conditions: mean of both orientations
T58 chain: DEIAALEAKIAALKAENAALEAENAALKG

[61] = molecular target: T59, 4H3162-AA; conditions: mean of both orientations
T59 chain: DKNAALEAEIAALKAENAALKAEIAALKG

[62] = molecular target: T60, 4H3606-AA; conditions: mean of both orientations
T60 chain: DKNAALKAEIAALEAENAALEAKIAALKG

[63] = molecular target: T61, 4H3588-AA; conditions: mean of both orientations
T61 chain: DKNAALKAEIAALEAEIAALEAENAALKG

[64] = molecular target: T62, 4H3056-AA; conditions: mean of both orientations
T62 chain: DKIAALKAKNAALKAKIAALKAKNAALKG

[65] = molecular target: T63, 4H32-AA; conditions: mean of both orientations
T63 chain: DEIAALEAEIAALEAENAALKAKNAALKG

[66] = molecular target: T64, 4H2732-AA; conditions: mean of both orientations
T64 chain: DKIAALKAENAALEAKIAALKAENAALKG

[67] = molecular target: T65, 4H2592-AA
T65 chain: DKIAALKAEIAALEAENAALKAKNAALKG

4H_GCN4, sequence (chain, as listed by the source): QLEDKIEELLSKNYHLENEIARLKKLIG

B1: 4H2774-AA (peptide)
chain: DKIAALKAENAALKAENAALEAKIAALKG
interaction score [1]: -1.21
interaction score [2]: 0.103
interaction score [3]: -1.75
interaction score [4]: -0.529
interaction score [5]: -0.913
interaction score [6]: 1.65
interaction score [7]: -0.921
interaction score [8]: -1.72
interaction score [9]: -2.24
interaction score [10]: -1.98
interaction score [11]: -0.902
interaction score [12]: -2.64
interaction score [13]: 1.59
interaction score [14]: -0.923
interaction score [15]: -0.289
interaction score [16]: -1.56
interaction score [17]: -1.48
interaction score [18]: -1.59
interaction score [19]: -1.47
interaction score [20]: -1.5
interaction score [21]: -1.57
interaction score [22]: -1.14
interaction score [23]: -1.57
interaction score [24]: -1.9
interaction score [25]: -0.668
interaction score [26]: -0.715
interaction score [27]: -1.68
interaction score [28]: -0.737
interaction score [29]: -1.34
interaction score [30]: -1.36
interaction score [31]: 1.28
interaction score [32]: -1.63
interaction score [33]: -1.37
interaction score [34]: -1.73
interaction score [35]: -0.282
interaction score [36]: -1.75
interaction score [37]: -1.68
interaction score [38]: -1.18
interaction score [39]: -1.7
interaction score [40]: -1.61
interaction score [41]: -1.61
interaction score [42]: -0.207
interaction score [43]: -0.756
interaction score [44]: -1.43
interaction score [45]: 0.364

B2: 4H2611-AA (peptide)
chain: DKIAALKAEIAALEAKNAALEAENAALEG
interaction score [46]: 1.2
interaction score [4]: -1.66
interaction score ([6]; mean of both orientations): -1.54
interaction score [7]: -0.637
interaction score [47]: -0.311
interaction score [12]: 1.87
interaction score [48]: -2.55
interaction score [49]: -0.987
interaction score [50]: 2.04
interaction score [51]: -1.39
interaction score [14]: -1.66
interaction score [16]: -1.87
interaction score [18]: -1.49
interaction score [52]: -1.32
interaction score [53]: -2.02
interaction score [54]: -1.77
interaction score [55]: -2.17
interaction score [56]: -1.45
interaction score [57]: -1.29
interaction score [58]: 0.167
interaction score [59]: -1.28
interaction score [60]: 1.81
interaction score [61]: -1.57
interaction score [41]: -1.73
interaction score [42]: -1.29
interaction score [62]: -1.56
interaction score [63]: -1.55
interaction score [64]: -1.57
interaction score [65]: 1.56
interaction score [45]: -1.69

B3: 4H2592-AA (peptide)
chain: DKIAALKAEIAALEAENAALKAKNAALKG
interaction score [66]: 0.248
interaction score [4]: -0.435
interaction score ([6]; mean of both orientations): 0.283
interaction score [7]: 1.59
interaction score [9]: -1.33
interaction score [10]: 1.75
interaction score [11]: -0.641
interaction score [12]: 0.226
interaction score [14]: -1.42
interaction score [15]: -1.75
interaction score [16]: -1.21
interaction score [17]: -1.39
interaction score [18]: 0.143
interaction score [19]: -0.726
interaction score [67]: 1.34
interaction score [32]: -0.819
interaction score [37]: -1.04
interaction score ([57]; mean of both orientations): 0.971
interaction score [40]: -1.66
interaction score [41]: -1.72
interaction score [42]: -1.19
interaction score [44]: -0.000754
interaction score [45]: -1.68
